The source of these data is patent US20260028424A1 (GRANULAR THERAPEUTICS, published 2026).

Positions count from the first letter of the chain named.

T1: human CD203c His-tagged recombinant protein (human, UniProt O14638 49-875, limits assumed)
T1 construct: also called ENPP3; not shown: His tag
T1 sequence (looked up): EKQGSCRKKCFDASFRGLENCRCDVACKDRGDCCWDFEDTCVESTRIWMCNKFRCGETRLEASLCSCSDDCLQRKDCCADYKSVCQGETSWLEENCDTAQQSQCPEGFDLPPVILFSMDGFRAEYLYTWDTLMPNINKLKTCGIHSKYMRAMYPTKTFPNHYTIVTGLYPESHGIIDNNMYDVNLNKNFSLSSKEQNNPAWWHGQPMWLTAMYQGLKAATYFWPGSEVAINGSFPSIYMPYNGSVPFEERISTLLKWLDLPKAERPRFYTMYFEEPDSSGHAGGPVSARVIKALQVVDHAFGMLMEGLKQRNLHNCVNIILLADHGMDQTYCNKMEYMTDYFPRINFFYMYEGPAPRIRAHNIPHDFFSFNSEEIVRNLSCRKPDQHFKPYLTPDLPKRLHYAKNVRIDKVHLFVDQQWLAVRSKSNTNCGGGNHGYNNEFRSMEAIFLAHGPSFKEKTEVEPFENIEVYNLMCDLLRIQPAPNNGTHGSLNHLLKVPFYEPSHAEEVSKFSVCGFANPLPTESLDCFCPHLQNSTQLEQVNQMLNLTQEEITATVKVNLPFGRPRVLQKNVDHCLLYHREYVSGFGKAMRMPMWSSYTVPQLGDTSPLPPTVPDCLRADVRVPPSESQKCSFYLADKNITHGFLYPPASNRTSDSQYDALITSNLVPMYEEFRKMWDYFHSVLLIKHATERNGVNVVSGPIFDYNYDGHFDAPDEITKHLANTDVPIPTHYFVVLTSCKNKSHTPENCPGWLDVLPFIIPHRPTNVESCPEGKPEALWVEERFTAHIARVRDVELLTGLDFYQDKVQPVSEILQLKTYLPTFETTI

T2: rhesus monkey CD203c His-tagged recombinant protein (rhesus monkey, UniProt F6TH66 31-874)
T2 construct: also called rhesus CD203c; not shown: His tag
T2 sequence: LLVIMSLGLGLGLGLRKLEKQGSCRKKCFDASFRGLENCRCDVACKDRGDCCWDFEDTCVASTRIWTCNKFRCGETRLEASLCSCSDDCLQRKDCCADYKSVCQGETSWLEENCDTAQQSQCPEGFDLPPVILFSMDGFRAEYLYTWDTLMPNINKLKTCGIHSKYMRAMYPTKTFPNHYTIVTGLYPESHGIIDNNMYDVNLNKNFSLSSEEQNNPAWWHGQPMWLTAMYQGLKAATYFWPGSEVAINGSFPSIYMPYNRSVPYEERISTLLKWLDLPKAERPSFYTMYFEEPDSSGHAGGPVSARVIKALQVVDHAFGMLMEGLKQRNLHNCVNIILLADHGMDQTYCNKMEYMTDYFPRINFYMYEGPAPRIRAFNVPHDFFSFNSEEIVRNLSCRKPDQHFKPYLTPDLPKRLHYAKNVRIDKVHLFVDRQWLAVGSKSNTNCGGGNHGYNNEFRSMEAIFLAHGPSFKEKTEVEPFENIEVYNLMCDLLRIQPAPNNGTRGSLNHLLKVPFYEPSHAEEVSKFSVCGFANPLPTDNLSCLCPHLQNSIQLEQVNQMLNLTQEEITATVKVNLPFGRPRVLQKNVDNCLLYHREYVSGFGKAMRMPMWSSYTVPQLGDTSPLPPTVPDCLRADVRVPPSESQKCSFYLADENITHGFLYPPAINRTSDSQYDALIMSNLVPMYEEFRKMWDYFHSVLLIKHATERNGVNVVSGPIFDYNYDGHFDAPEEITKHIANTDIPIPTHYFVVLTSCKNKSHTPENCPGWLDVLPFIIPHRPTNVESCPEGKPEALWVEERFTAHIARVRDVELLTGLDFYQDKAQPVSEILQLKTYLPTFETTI

T3: human CD203c expressed on the surface of KU812 cells (human, UniProt O14638 1-875)
T3 construct: whole, on cells; also called cell-surface CD203c; cell surface CD203c on KU812 cells
T3 sequence (looked up): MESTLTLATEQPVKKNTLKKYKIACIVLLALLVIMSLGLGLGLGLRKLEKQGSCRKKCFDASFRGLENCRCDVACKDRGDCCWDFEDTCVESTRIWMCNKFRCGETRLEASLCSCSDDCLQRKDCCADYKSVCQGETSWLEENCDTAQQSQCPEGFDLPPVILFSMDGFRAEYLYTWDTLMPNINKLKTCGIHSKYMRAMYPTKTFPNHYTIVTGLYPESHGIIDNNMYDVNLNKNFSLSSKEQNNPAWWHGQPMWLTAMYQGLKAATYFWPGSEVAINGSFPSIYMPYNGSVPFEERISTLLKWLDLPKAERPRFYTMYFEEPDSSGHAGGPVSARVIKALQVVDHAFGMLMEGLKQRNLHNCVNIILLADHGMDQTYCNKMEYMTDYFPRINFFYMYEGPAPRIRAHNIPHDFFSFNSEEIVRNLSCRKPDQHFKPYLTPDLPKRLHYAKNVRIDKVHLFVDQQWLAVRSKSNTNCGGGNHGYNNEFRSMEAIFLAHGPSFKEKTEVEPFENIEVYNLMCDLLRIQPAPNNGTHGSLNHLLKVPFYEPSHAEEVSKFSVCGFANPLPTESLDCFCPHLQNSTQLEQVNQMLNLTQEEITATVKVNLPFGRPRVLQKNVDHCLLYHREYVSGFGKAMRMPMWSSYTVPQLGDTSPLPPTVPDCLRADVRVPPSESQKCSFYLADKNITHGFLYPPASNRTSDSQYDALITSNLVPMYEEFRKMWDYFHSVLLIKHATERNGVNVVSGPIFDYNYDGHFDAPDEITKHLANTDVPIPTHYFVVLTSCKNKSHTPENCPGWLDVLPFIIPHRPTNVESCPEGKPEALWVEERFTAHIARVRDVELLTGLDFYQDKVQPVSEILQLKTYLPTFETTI

B1: 18 (antibody, V domains shown)
VH: EVQLVQSGAEVKKPGESLKISCKGSGYRFTSYWIGWVRQMPGKGLEWMGIIYPGDSDTRYSPSFQGQVTISADKSISTAYLQWSSLKASDTAMYYCARKDYYYDAMDYWGQGTTVTVSS
VL: DIQMTQSPSSLSASVGDRVTITCRASQGIRTNLAWFQQKPGKAPKSLIYAASSLQSGVPSRFSGSGSGTDFTLTISSLQPEDFATYYCQQYNSYPRTFGGGTKVEIK
notes: also called variant 18; 18 VH domain
B2: 15 (antibody, V domains shown)
VH: B1 VH with D104G, A105T, Y108V
VL: B1 VL
notes: also called variant 15; 15 VH domain
B3: 13 (antibody, V domains shown)
VH: B1 VH with D104G, A105S, Y108V
VL: B1 VL
notes: also called variant 13; 13 VH domain
B4: A5 (antibody, V domains shown)
VH: B1 VH with T30S, W33R, I50E, D57K, D104Y, Y108V
VL: B1 VL
notes: also called variant A5; A5 VH domain
B5: 12 (antibody, V domains shown)
VH: B1 VH with D104G, A105I, Y108V
VL: B1 VL
notes: also called variant 12; 12 VH domain
B6: 14 (antibody, V domains shown)
VH: B1 VH with D104G, M106L, Y108V
VL: B1 VL
notes: also called variant 14; 14 VH domain
B7: 17 (antibody, V domains shown)
VH: B1 VH with D104N, D107P, Y108V
VL: B1 VL
notes: also called variant 17; 17 VH domain
B8: 23 (antibody, V domains shown)
VH: B1 VH with T30G, I50E, D57K, D104Y, Y108V
VL: B1 VL
notes: also called variant 23; 23 VH domain
B9: 10 (antibody, V domains shown)
VH: B1 VH with D104G, Y108V
VL: B1 VL
notes: also called variant 10; 10 VH domain
B10: 26 (antibody, V domains shown)
VH: B1 VH with T30A, Y32H, I50E, Y60I, D104Y, Y108V
VL: B1 VL
notes: also called variant 26; 26 VH domain
B11: 11 (antibody, V domains shown)
VH: B1 VH with D104G, M106F, Y108V
VL: B1 VL
notes: also called variant 11; 11 VH domain
B12: C4 (antibody, V domains shown)
VH: B1 VH with T30G, I50D, D55N, D104Y, Y108V
VL: B1 VL
notes: also called variant C4; C4 VH domain
B13: F6/MH1 common light chain bispecific (anti-CD203c F6 x anti-c-Kit MH1) (bispecific antibody, V domains shown)
VH 1: QVQLVQSGAEVKKPGASVKVSCKASGYTFTDYYMNWVRQAPGQGLEWMGRIYPGSGNTYYAQKFQGRVTMTRDTSTSTVYMELSSLRSEDTAVYYCARGVYYYDYWGQGTLVTVSS
VH 2: B1 VH with T30A, Y32N, I50E, D57N, D104Y, Y108V
VL: B1 VL
notes: Knob-in-hole IgG1null bispecific with human Ckappa; also called F6/MH1 bispecific molecule
B14: bispecific pair with alternative common light chain VL1: MH1 VH / 2.7_1 VH / VL1 (bispecific antibody, V domains shown)
VH 1: B13 VH 1
VH 2: EVQLVESGPGLVKPSETLSLTCTVSGGSISSSSYYWGWIRQPPGKGLEWIGSMYYSGSTYHNPSLKSRVIISVDTSKNQFSLKLSSVTAADTAVYYCARHYITVAGIFDYWGQGTLVTVSS
VL: QSVLTQPPSASGTPGQRATISCRASQGIRTNLAWYQQVPGTAPKLLIYAASSLQSGVPSRFSGSKSGTSASLAISGLQSEDEADYYCQQYNSYPRTFGGGTKLTVL
notes: Format as tested (bispecific or separate IgGs) is not described beyond 'bispecific pairs'
B15: bispecific pair with alternative common light chain VL4: MH1 VH / 2.14_1.2 VH / VL4 (bispecific antibody, V domains shown)
VH 1: B13 VH 1
VH 2: QVQLQESGPGLVKPSQTLSLTCTVSGGSISSGGYYWSWIRQHPGKGLEWIGIIYYSGSTYYNPSLKSRVTISVDTSKNQFSLKLNSVTAADTAVFYCARVAIVTTIPGGMDVWGQGTTVTVSS
VL: EIVLTQSPDFQSVTPKEKVTITCRASQGIRTNLAWYQQKPDQSPKLLIKYASQSFSGVPSRFSGSGSGTDFTLTINSLEAEDAATYYCQQYNSYPRTFGQGTKVEIK
B16: bispecific pair with alternative common light chain VL2: MH1 VH / 2.7_1.2 VH / VL2 (bispecific antibody, V domains shown)
VH 1: B13 VH 1
VH 2: B14 VH 2
VL: B14 VL with A49S, A50N, S51N, S52Q, L53R, Q54P, S59D

The target of the first experiment is T1, human CD203c His-tagged recombinant …. Description: direct binding ELISA on human CD203c, absorbance (blank corrected).
For B1, the binding result is reported as “binds”. On the same count and under the same terms, under B2 stands “binds”. Still for that read-out and setting: under B3 stands “binds”. As for B4, the binding result is recorded as “binds”. For B5, the concentration for a half-maximal effect (EC50 (read off the curve)) was ~0.04 µg/mL. On to B6, for which the binding result is “binds”. Same read-out and setting: under B7 stands “binds”. Still for that read-out and setting: the entry for B8 is “binds”; for B9 it is “binds”. Take B10: the binding result is reported as “binds”. Same read-out and setting: the entry for B11 is “binds”; for B12 it is “binds”.

The next experiment deals with c-Kit (antigen of the binding assay of FIG. 9A) (Homo sapiens (Human), UniProt P10721 26-524). Description: plate binding assay on Human c-KIT, A450-A630 (ratio corrected).
c-Kit (antigen of the binding assay of FIG. 9A), sequence (P10721 26-524 limits assumed): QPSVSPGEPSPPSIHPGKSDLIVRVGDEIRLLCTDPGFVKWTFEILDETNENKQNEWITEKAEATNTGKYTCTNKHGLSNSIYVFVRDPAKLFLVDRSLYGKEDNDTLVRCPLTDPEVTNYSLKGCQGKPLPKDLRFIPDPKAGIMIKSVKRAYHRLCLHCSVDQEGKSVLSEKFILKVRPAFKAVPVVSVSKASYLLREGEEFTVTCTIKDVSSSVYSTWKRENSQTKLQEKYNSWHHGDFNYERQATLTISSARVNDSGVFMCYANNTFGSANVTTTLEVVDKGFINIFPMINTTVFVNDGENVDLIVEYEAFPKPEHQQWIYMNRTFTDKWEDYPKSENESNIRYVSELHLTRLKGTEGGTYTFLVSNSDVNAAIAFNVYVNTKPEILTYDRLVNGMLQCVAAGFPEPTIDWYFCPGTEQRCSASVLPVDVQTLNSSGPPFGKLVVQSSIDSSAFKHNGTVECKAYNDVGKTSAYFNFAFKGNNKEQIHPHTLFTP
With B13, the concentration giving a half-maximal response (EC50 (read off the curve)) was ~0.5 µg/mL. Same read-out and setting: under B14 stands ~0.06 µg/mL; under B15, ~0.06 µg/mL; under B16, ~0.06 µg/mL.

The next experiment has as its target T2, rhesus monkey CD203c His-tagged …. Put plainly: direct binding ELISA on rhesus CD203c, absorbance (blank corrected).
In the case of B1, the binding result is recorded as “binds”. The same measure, in the same setting: under B2 stands “binds”.

For the molecule B3, the binding result was “binds”. The same measure, in the same setting: under B5 stands “binds”; under B6, “binds”. On the same count and under the same terms, under B7 stands “binds”; under B9, “binds”; under B10, “binds”. The same measure, in the same setting: the entry for B11 is “binds”.

Another experiment concerns the target T3, human CD203c expressed on the surface …. Put plainly: flow cytometry on KU812 cells, MFI (530/30 - 488nm) of live cells.
As to B2, the binding result is listed as “binds”.

In the case of B4, the binding result was “binds”.

In the case of B7, the binding result was “binds”. Still for that read-out and setting: the entry for B9 is “binds”; for B11 it is “binds”; for B12 it is “binds”.
